For data set [1], the target named is KvAP-C247S (Aeropyrum pernix). Nature of the data set: cross-linking.
For data set [2], the target named is SUMO CTD fusion with the native C247 residue (Aeropyrum pernix). Nature of the data set: cross-linking.
The target of data set [3] is SUMO-GCN4 fusion protein (Aeropyrum pernix | not stated). Nature of the data set: SEC. (SEC sorts molecules by how far they enter the pores of the column.)
Data set [4] has the same target. Nature of the data set: cross-linking.
The target in data set [5] is KvAPΔCTD+Lys (Aeropyrum pernix). Nature of the data set: cross-linking.
Data set [6] concerns the target KvAP-C247S (Aeropyrum pernix). Nature of the data set: cross-linking. This is another data set of the same source.
The data set “SEC” concerns the molecule itself. Nature of the data set: SEC.

Broadly, the stoichiometry N is a count of units in the complex or per binding partner. For the molecule KvAP-C247S (natural protein), in data set [1], the stoichiometry N was found to be 4.

In turn, “SUMO CTD fusion with the native C247 residue (domain or fragment)” had a stoichiometry N in data set [2] of 2. Take SUMO-GCN4 fusion protein: the stoichiometry N in data set [3] and in data set [4] was 4 throughout. On to KvAPΔCTD+Lys (domain or fragment), for which, in data set [5], the percent cross-linked (tetramer) stood at 100%, the percent tetramer at 2 hours came out at 4%, the stoichiometry N was 4 and the tetramer yield relative to the full length protein turned out to be 0.5.

B1: S6-CTD peptide (peptide)
peptide: CVTATTVGYGDVVPATPIGKVIGIAVMLTGISALTLLIGTVSNMFQKILVGEPEPSSSPAKLAEMVSSMSEEEFEEFVRTLKNLRRLENSMKGS
In data set [6], B1 had a percent decrease in the KvAP tetramer yield of 60%.

B2: SUMO-CTD fusion protein (domain or fragment, Aeropyrum pernix)
chain: LVGEPEPSSSPAKLAEMVSSMSEEEFEEFVRTLKNLRRLENSMK
In the case of B2, in the data set “SEC”, the “stoichiometry N” value amounted to 2.

(Values after publication PMC6588284 (Biochemistry, 2019).)
